Measurements taken from patent US20100223690A1, “COMPOSITIONS AND METHODS FOR MODULATING PLANT DISEASE RESISTANCE AND IMMUNITY” (Washington State University, published 2010).

T1: AtSR1 (CAMTA3) CG-1 DNA-binding domain (Arabidopsis thaliana, UniProt Q8GSA7 SEQ:1-153)
T1 sequence: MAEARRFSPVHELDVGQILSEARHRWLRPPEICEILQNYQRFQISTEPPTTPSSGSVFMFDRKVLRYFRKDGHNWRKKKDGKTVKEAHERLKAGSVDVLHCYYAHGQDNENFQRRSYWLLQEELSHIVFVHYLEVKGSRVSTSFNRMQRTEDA


What was measured:
[1] = target: Ca2+/calmodulin (endogenous, in Arabidopsis plants) (Arabidopsis thaliana); experiment: cell-based or functional assay
[2] = target: T1, AtSR1 (CAMTA3) CG-1 DNA-binding domain; experiment: EMSA; Ca2+/CaM-independent; settings: tags: 6xHis (pET32a)
Description: (§1) The E. coli strain BL21(DE3)/pLysS carrying the above pET32a derived plasmids for expression of recombinant proteins of the wild-type and mutated versions of AtSR1, AtSR6 or ABF1 were induced with 0.5 mM IPTG for 3 hours. 6×His tagged recombinant proteins were purified using Ni-NTA agarose affinity beads (Qiagen) as described by the manufacturer. Recombinant AtSR1 or AtSR6 covering CG-1 domain, or ABF1 was used for EMSA³² to detect its interaction with WT or mutated EDS1 promoter fragments. Recombinant AtSR1 containing CaMBD was used for CaM overlay assay³⁸.

[3] = target: T1, AtSR1 (CAMTA3) CG-1 DNA-binding domain; experiment: EMSA; binding is ACGCGT-dependent; settings: tags: 6xHis (pET32a)
Description: as §1

Row | Molecule | level of SA in complemented plants [1] | further results
1 | full-length AtSR1 I909V fused to Flag tag, expressed from 35S::AtSR1I909V in atsr1-1 plants (from UniProt Q8GSA7 1-1032) | 60 % of WT | 
2 | full-length wild-type AtSR1 fused to Flag tag, expressed from 35S::AtSR1 in atsr1-1 plants (from UniProt Q8GSA7 1-1032) | 60 % of WT | 
3 | EDS1P probe (-762 to -731) (dsDNA) DNA 1: GTAAAAGTCGAATGTGACGCGTCTTGCCGAAC DNA 2: GTTCGGCAAGACGCGTCACATTCGACTTTTAC |  | binding result [2]: binds
4 | eds1p mutant probe (dsDNA, [19 (G>C)]) DNA 1: GTAAAAGTCGAATGTGACCCGTCTTGCCGAAC DNA 2: GTTCGGCAAGACGGGTCACATTCGACTTTTAC |  | binding result [3]: no binding
